Each substance was assayed against HLA-A*02:01 (Homo sapiens, UniProt P04439, D140Y/D185E/D98H/E176V/E277Q/G131W/G231S/I119V/I121R/I166T/I218V/L300P/L318F/N151K/N90K/P208A/P217A/Q86G/Q94H/R138H/R169H/T345S) (assay: MHC binding assay: UV-ligand exchange with beta2m ELISA). Conditions: MHC class I binding score, yield of UV-ligand exchange.
From the text: Candidate peptides for T cell based therapies according to the present invention were further tested for their MHC binding capacity (affinity). The individual peptide-MHC complexes were produced by UV-ligand exchange, where a UV-sensitive peptide is cleaved upon UV-irradiation, and exchanged with the peptide of interest as analyzed. Only peptide candidates that can effectively bind and stabilize the peptide-receptive MHC molecules prevent dissociation of the MHC complexes. To determine the yield of the exchange reaction, an ELISA was performed based on the detection of the light chain (β2m) of stabilized MHC complexes. The assay was performed as generally described in Rodenko et al. (Rodenko et al., 2006).
96 well MAXISorp plates (NUNC) were coated over night with 2 ug/ml streptavidin in PBS at room temperature, washed 4× and blocked for 1 h at 37° C. in 2% BSA containing blocking buffer. Refolded HLA-A*02:01/MLA-001 monomers served as standards, covering the range of 15-500 ng/ml. Peptide-MHC monomers of the UV-exchange reaction were diluted 100 fold in blocking buffer. Samples were incubated for 1 h at 37° C., washed four times, incubated with 2 ug/ml HRP conjugated anti-β2m for 1 h at 37° C., washed again and detected with TMB solution that is stopped with […]. Absorption was measured at 450 nm. Candidate peptides that show a high exchange yield (preferably higher than 50%, most preferred higher than 75%) are generally preferred for a generation and production of antibodies or fragments thereof, and/or T cell receptors or fragments thereof, as they show sufficient avidity to the MHC molecules and prevent dissociation of the MHC complexes.
“1 (FLAQQESEI; listed as Homo sapiens) [compound 1]” was tested, and the Peptide exchange was “++ (20%-49% = ++)”. “2 (SLQEEHVAVA; listed as Homo sapiens) [compound 2]” was tested, and the Peptide exchange was “++ (20%-49% = ++)”. “4 (SVDVSPPKV; listed as Homo sapiens) [compound 4]” was tested, and the Peptide exchange was “++ (20%-49% = ++)”. For “5 (LLVDDSFLHTV; listed as Homo sapiens) [compound 5]”, the Peptide exchange was “+++ (50%-75% = +++)”. In the case of “6 (VLISLKQAPLV; listed as Homo sapiens) [compound 6]”, the Peptide exchange is reported as “++ (20%-49% = ++)”. “7 (AQQESEIAGI; listed as Homo sapiens) [compound 7]” was tested, and the Peptide exchange was “++ (20%-49% = ++)”. “8 (IVDDLTINL; listed as Homo sapiens) [compound 8]” was tested, and the Peptide exchange was “++ (20%-49% = ++)”. For “9 (FLFDGSANLV; listed as Homo sapiens) [compound 9]”, the Peptide exchange was “++ (20%-49% = ++)”. With “10 (FLVDGSSAL; listed as Homo sapiens) [compound 10]” the Peptide exchange was “++ (20%-49% = ++)”. In the case of “11 (FLYKIIDEL; listed as Homo sapiens) [compound 11]”, the Peptide exchange is reported as “+++ (50%-75% = +++)”. In the case of “12 (FVSEIVDTV; listed as Homo sapiens) [compound 12]”, the Peptide exchange is reported as “+++ (50%-75% = +++)”. “13 (LLAGQTYHV; listed as Homo sapiens) [compound 13]” was tested, and the Peptide exchange was “++ (20%-49% = ++)”. “14 (VLAKPGVISV; listed as Homo sapiens) [compound 14]” was tested, and the Peptide exchange was “++ (20%-49% = ++)”. With “15 (SLANNVTSV; listed as Homo sapiens) [compound 15]” the Peptide exchange was “++ (20%-49% = ++)”. For “16 (APVNVTTEVKSV; listed as Homo sapiens) [compound 16]”, the Peptide exchange was “++ (20%-49% = ++)”. For “17 (FLKSGDAAIV; listed as Homo sapiens) [compound 17]”, the Peptide exchange was “++ (20%-49% = ++)”. In the case of “18 (SLLDDELMSL; listed as Homo sapiens) [compound 18]”, the Peptide exchange is reported as “++ (20%-49% = ++)”. With “22 (TLDGAAVNQV; listed as Homo sapiens) [compound 22]” the Peptide exchange was “++ (20%-49% = ++)”. In the case of “24 (GLLEELVTV; listed as Homo sapiens) [compound 24]”, the Peptide exchange is reported as “++ (20%-49% = ++)”. “25 (SLKEEVGEEAI; listed as Homo sapiens) [compound 25]” was tested, and the Peptide exchange was “++ (20%-49% = ++)”. “26 (SLKEEVGEEAIV; listed as Homo sapiens) [compound 26]” was tested, and the Peptide exchange was “++ (20%-49% = ++)”. In the case of “27 (YLQGQRLDNV; listed as Homo sapiens) [compound 27]”, the Peptide exchange is reported as “++ (20%-49% = ++)”. In the case of “28 (YLQGQRLDNVV; listed as Homo sapiens) [compound 28]”, the Peptide exchange is reported as “++ (20%-49% = ++)”. “29 (FLQEYLDAI; listed as Homo sapiens) [compound 29]” was tested, and the Peptide exchange was “+++ (50%-75% = +++)”. For “30 (VVDEGPTGV; listed as Homo sapiens) [compound 30]”, the Peptide exchange was “++ (20%-49% = ++)”. In the case of “31 (SLAAAAGKQEL; listed as Homo sapiens) [compound 31]”, the Peptide exchange is reported as “++ (20%-49% = ++)”. For “32 (SLAAAAGKQELA; listed as Homo sapiens) [compound 32]”, the Peptide exchange was “+ (<20% = +)”. In the case of “33 (SLDSRLELA; listed as Homo sapiens) [compound 33]”, the Peptide exchange is reported as “++ (20%-49% = ++)”. For “35 (VMDSGDGVTHTV; listed as Homo sapiens) [compound 35]”, the Peptide exchange was “++ (20%-49% = ++)”. For “38 (NLVEKTPALV; listed as Homo sapiens) [compound 38]”, the Peptide exchange was “+++ (50%-75% = +++)”. With “39 (TLLSNLEEA; listed as Homo sapiens) [compound 39]” the Peptide exchange was “++ (20%-49% = ++)”. For “40 (FILDSAETTTL; listed as Homo sapiens) [compound 40]”, the Peptide exchange was “++ (20%-49% = ++)”. With “41 (FLLDGSEGV; listed as Homo sapiens) [compound 41]” the Peptide exchange was “+++ (50%-75% = +++)”. “42 (KLVDKSTEL; listed as Homo sapiens) [compound 42]” was tested, and the Peptide exchange was “++ (20%-49% = ++)”. In the case of “43 (RLDQRVPQI; listed as Homo sapiens) [compound 43]”, the Peptide exchange is reported as “++ (20%-49% = ++)”. With “44 (VLLDKIKNLQV; listed as Homo sapiens) [compound 44]” the Peptide exchange was “++ (20%-49% = ++)”. “46 (TFAPVNVTTEVKSV; listed as Homo sapiens) [compound 46]” was tested, and the Peptide exchange was “++ (20%-49% = ++)”. For “47 (KMDASLGNLFA; listed as Homo sapiens) [compound 47]”, the Peptide exchange was “++++ (>=75% = ++++)”. For “48 (ALTQTGGPHV; listed as Homo sapiens) [compound 48]”, the Peptide exchange was “++ (20%-49% = ++)”. In the case of “49 (NLKGTFATL; listed as Homo sapiens) [compound 49]”, the Peptide exchange is reported as “+ (<20% = +)”. With “51 (ALMLQGVDL; listed as Homo sapiens) [compound 51]” the Peptide exchange was “++ (20%-49% = ++)”. In the case of “52 (RMVEEIGVEL; listed as Homo sapiens) [compound 52]”, the Peptide exchange is reported as “++ (20%-49% = ++)”. With “53 (SSFGGLGGGSV; listed as Homo sapiens) [compound 53]” the Peptide exchange was “+ (<20% = +)”. With “54 (VLLSEIEVA; listed as Homo sapiens) [compound 54]” the Peptide exchange was “++ (20%-49% = ++)”. For “55 (YLDAMMNEA; listed as Homo sapiens) [compound 55]”, the Peptide exchange was “++ (20%-49% = ++)”. “56 (GLLDYATGAIGSV; listed as Homo sapiens) [compound 56]” was tested, and the Peptide exchange was “+++ (50%-75% = +++)”. With “57 (FLGKVVIDV; listed as Homo sapiens) [compound 57]” the Peptide exchange was “++++ (>=75% = ++++)”. In the case of “58 (GLAAFKAFL; listed as Homo sapiens) [compound 58]”, the Peptide exchange is reported as “+++ (50%-75% = +++)”. For “59 (KLFNLSKEDDV; listed as Homo sapiens) [compound 59]”, the Peptide exchange was “++ (20%-49% = ++)”. “60 (YLEEDVYQL; listed as Homo sapiens) [compound 60]” was tested, and the Peptide exchange was “++ (20%-49% = ++)”. In the case of “64 (FLVSNMLLAEA; listed as Homo sapiens) [compound 64]”, the Peptide exchange is reported as “+++ (50%-75% = +++)”. For “65 (YLYDSETKNA; listed as Homo sapiens) [compound 65]”, the Peptide exchange was “++ (20%-49% = ++)”. For “66 (ALLSGLREA; listed as Homo sapiens) [compound 66]”, the Peptide exchange was “+++ (50%-75% = +++)”. “67 (KMFFLIDKV; listed as Homo sapiens) [compound 67]” was tested, and the Peptide exchange was “+++ (50%-75% = +++)”.

Reference: US10898561B2, “Peptides and combination of peptides for use in immunotherapy against pancreatic cancer and other cancers” (IMMATICS BIOTECHNOLOGIES GMBH, priority 2015, dated 2021)
